This is an account of results in the nanobody polyreactivity screen of Harvey et al. (2022).

A short description of this data set: yeast display, Sf9 membrane polyspecificity reagent, FACS + sequencing; frameworks hold sequencing errors. In a few lines: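 Galactose-induced (36–48 hours) yeast carrying a synthetic nanobody display library were exposed to 10% biotinylated, detergent-solubilized Sf9 membrane reagent at 4 °C for 1 hour. FACS followed streptavidin microbead enrichment, using low and high (top ~1%) gates for expression (anti-HA) and reagent binding (streptavidin). Colony PCR, MiSeq 2 × 250 sequencing and CDR-length filtering followed. Labels for polyreactivity reflect the gate of origin.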
Consider “QVQLVESGGRIVQAGGSLRLSCAASGRIFWLNAMGRYRQAPGKEREFVASITYGSDSTYYADSVKGRFTISRDTATNTVYFQMNSLKPEDTAVYYCNREGWHYGPYGYWGQGTQVTVSS”, for which the “polyreactivity (PSR sort gate)” value is on record as “low polyreactivity”.

Consider “QVQLVESGGGLVQAGGSLRLSCAASGGIFKWYDMGWYRQAPGKEREFVAAITWSGGSTYYADSVKGRFTISRDNAKNTVYLQMNSLKPEVTAVYYCNVDWYPRGPHTVVFYDVSPFDYWGQGTQVTVSS”, for which the “polyreactivity (PSR sort gate)” value is “high polyreactivity”.

Turning to “QVQLVESGGGLLQAGGSLRLSCAASGSTFYKYAMGWYRHAPRKERELVASISRSGRSTYYADSVKGRFTISRDNAKNTVYLQMNSLKPEDTAVYYCAATWRQHPGSMGYWGQGTQVTVSS”, the “polyreactivity (PSR sort gate)” value is reported as “high polyreactivity”.

As to “QVQLVESGGGLVQAGGILRLSWAASGFTFDSNAMGWYRQAPGKERELVASISSSGSTNYADCVKGRFTISRDNAKNTVDFQMNSLKPEDTAVYSCAAESRYPFIYEYWGQGTEVTVSS”, the “polyreactivity (PSR sort gate)” value is “low polyreactivity”.

“QVQLVESGGGLVQAGGSLRLSCAASGLIYFYYDMGWYRQAPGKERELVAAISQRGGSTYYADSVKGRFTISRDNAKNTVYLQMNSLKPEDTAVYYCNAYSQRYGYYYWGQGTQVTVSS”: the “polyreactivity (PSR sort gate)” value is listed as “high polyreactivity”.

In the case of “QVQLVESGGGLVQAGGSLRLSCAASGFTFDKNVMGWYRQAPGKERELVAAISVRGGTTYYADSVKGRFTISRDNAKNTVYLQMNSLKPEDTAVYYCAARAYGPPARYDSWGQGTQVTVSS”, the “polyreactivity (PSR sort gate)” value is reported as “low polyreactivity”.

Take “QVQLVESGGGLVQAGGSLRLSCAASGSIFGVNDMGWYRQAPGKERELVAGISSGGSTYYADSVKGRFTISRDNAKNTVYLQMNSLKPEDTAVYYCAKPYYDGRTHFDSWGQGTQVTVSS”: the “polyreactivity (PSR sort gate)” value is “low polyreactivity”.

As for “QVQLVESGGVLVQAGGSLRLSCAASGSIFDKAMGWSRQAPGKERELVSAITSGGITNYADSVKGRFTISRDNAKNTVYLQMNRLKPEDCAVYYCNTLSPTQTKYDYWGQGTQVSVSS”, the “polyreactivity (PSR sort gate)” value is listed as “low polyreactivity”.

With “QVQLVESGGGLVQAGGSLRLSCAASGIIFGRYAMGWYRQAPGKERELVAAISARGGSTYYADSVKGRFTISRDNAKNTVYLHMNSLKPEDTAVYYCAARAVYTQKRYDSWGQGTQVTVSS”, the “polyreactivity (PSR sort gate)” value is “high polyreactivity”.

With “QVQLVESGGGLVQAGGSLRLSCAASGFTFGEYAMGWYRQAPGKEREFVAAISATGGSTYYADSVKGRFTISRDNAKNTVYLQMNSLKPEDTAVYYCAARDAYYDGYDYWGQGTQVTVSS”, the “polyreactivity (PSR sort gate)” value is on record as “low polyreactivity”.

With “QVQLVESGGGLVQAGGSHRLSCASSGRTLLAYAMGWYIQAPGKEREFVDAISSRGVRTYYADSVKGRFTISRDNANNTVYLQMNSLKPEDTAVYYCASRGTKSIKDVPGIRYGYWGQGTQVTVSS”, the “polyreactivity (PSR sort gate)” value was “high polyreactivity”.

Turning to “QVQLVESGAGLVQAGGSLRLSCAASGFTFDQYAMGWYRPATGKERELVAGISWGGGTTYYADSVKGRFTISRDNAKNTVYLHMNSLKPEDTAVYYCAAVRPGYPYYGSDYWGPGTQVTVSS”, the “polyreactivity (PSR sort gate)” value is “low polyreactivity”.

As to “QVQLVESGGGLVQAGGSLRLSCAASGSIFRNYAMGWYRQAPGKERELVARISYSGGRTHYADSVKGRFTISRDNAKNTVYLQMNSLKPEDTAVYYCAAPFHFTHFQGNYYWGQGTQVTVSS”, the “polyreactivity (PSR sort gate)” value was “low polyreactivity”.

In the case of “QVQLVESGGGLVQAGGSLRLICAASGRILPLYAMGWYRQAPGKERELVADITGSDGSTYYADSVKGRFTISRDNAKNTVYLQMNSLKPEDTAVYYCATDAIGRTPSDPWDYYYWGQGTQVTVSS”, the “polyreactivity (PSR sort gate)” value was “low polyreactivity”.

For “QVQLVESGGGLVQAGGSLRLSCAASGRTFSGYAMGWYRQAPGKERELVAAISSGGGSTYYADSVKGRFTISRDNAKNSVYLQMNSLKPEDTAVYYCAADGYPGDYDYWGQGTQVTVSS”, the “polyreactivity (PSR sort gate)” value is recorded as “low polyreactivity”.

For “QVQLVESGGGLVQAGGSLRLSCAASGITFGDYAMGWYRQAPGKERELVAAISKRGGSTYYADSVKGRFTISRDNAKNTVYLQMNSLKPEDTAVYYCAADYYINAYYYWGQGTQVTVSS”, the “polyreactivity (PSR sort gate)” value is reported as “high polyreactivity”.

For “QVQLVESGGGLVQAGGSLRLSCAASGITFVRYAMGWYRQAPGKERELVAAISSGGSTHYADSVKGRFTISRDNAKNTVYLQMNSLKPEDTAVYYCAAQWTESSLYRFGYWGQGTQVTVSS”, the “polyreactivity (PSR sort gate)” value is “high polyreactivity”.

In the case of “QVQLVESGGGLVQAGGSLRLSCAASGSTFTRYGMGWYRQAPGKERELGAAITTSGSSTYYADSVKGRFTISRDNAKNTVYLQMNSLKPEDTAVYYCAADWSSWGFDYWGQGTQVTVSS”, the “polyreactivity (PSR sort gate)” value is on record as “low polyreactivity”.

With “QVQLVESGGGLVQAGGSLRLSCAASGSTFDGYTMGWYRQAPGKERELVAAISWRGTSTYYADSVKGRFTISRYIAKNTVYLQMNSLKPEDTAVYYCAADAYSGYDYWGQGTQVTVSS”, the “polyreactivity (PSR sort gate)” value is reported as “low polyreactivity”.

Consider “QVQLVESGGGLVQAGGSLRLSCAASGFTFRVYAMGGYRPAPGKERELVAAITSGSSTTYADSVKGRFTISRDNAKNTVYLQMNSLKPEDTAVYYCNARRRGRVTGSYGYWGQGTQVTVSS”, for which the “polyreactivity (PSR sort gate)” value was “high polyreactivity”.

With “QVQLVESGGGLVQAGGSLRLSCAASGRIFYDNAMGWYRQAPGKERELVAAIRIGGSTNYADSVKGRFTISRDNAKNTVYLQMNSLKPEDTAVYYCNGSDNPDSYYPDSVWGDSWGQGSQVTVSS”, the “polyreactivity (PSR sort gate)” value is on record as “low polyreactivity”.

With “QLQLVESGGGLFQAGGRLRLSFAATGSTFGYYARGWYRQAPGKERELVAAISGSGGSTYYADSVKGRFTISRDNAKNTVYLQMNSLKPEDTAVYYCAATFHRLPKWGSPYYYWGQGTQVTVSS”, the “polyreactivity (PSR sort gate)” value is “high polyreactivity”.

As to “QGQLGESGGGLVQAGGSLRLSCAASGGTFYYYAMGWYRHAPGKEREFVAAITWTGGRTYYADSVKGRFTISRDNAKNTVYLQMNSLKPEDSAVYYCAASDRYGGRDYWGQGTQVTVSS”, the “polyreactivity (PSR sort gate)” value is “high polyreactivity”.

For “QVQLVESGGGLVQALGSLRLSCAASGSIFQRNALGWYRLAPGKERELVAAISRSGGSTYYADSVKGRFTISRDNAKNTVYCQMNSLQPEDTAVYYCAAVHFFWGYDYWGQGTQVTVSS”, the “polyreactivity (PSR sort gate)” value was “high polyreactivity”.

Take “QVQLVESGGGLVQAGGSLRLTCAASGGIFRPNAMGWYRPAPGKERELVASIDDGDSTNYADSVKGPFTISRDNAKNTVSLQMNSLKPEDTAVYYFAAEQGYTVIYDYWGQGSQVTVSS”: the “polyreactivity (PSR sort gate)” value is listed as “low polyreactivity”.

As for “QVQLVESGGGLVQAGGSLRLSCAASGITFLRYAMGWYRKSPGKERELVARISSGGRTDYADSVKGRFTISRDNAKNTVYLQMNSLKPEDSAVYYCNATVYEWHTEYDYWGQGTQVTVSS”, the “polyreactivity (PSR sort gate)” value is reported as “high polyreactivity”.

Turning to “QVQLVESGGGLVQAGGSLRLSCAASGRTFPRYVMGWYRQAPGKERELVAAITSSGGSTYYADSVKGRFTISRDKAMNTVYLQMNSLKPEDTAVYYCAAFARPYSGQYAYRLDYWGQGTQVTVSS”, the “polyreactivity (PSR sort gate)” value was “high polyreactivity”.

As for “QVQLVESGGGLVQAGGSLRLSCAASGRIIIEYAMGWYRQAPGKERELVASITSSGGRTTFADSVKGRFTISRDNAKNTVYLQMNSLKPEDTSVYYCAAKYYWYYSYSGIPLFDYWGQGTQVTVSS”, the “polyreactivity (PSR sort gate)” value is “low polyreactivity”.

With “QVQLVESGGGLVQAGGSLRLSCAASGSTFYTYVMGGYRQAPGKERELVAAITRSGGITYYADSVKGRFTISRDNAKYTVYLQMNSLKPEDTAVYYCAKDDQTASGFDYWGQGTQVTVSS”, the “polyreactivity (PSR sort gate)” value was “low polyreactivity”.

With “QVQLVESGGGLVQAGGSLRLSCAASGSIFGGYAMGWYRQAPGKERELVAAISRSGASTYYADSVKGRFTISRDNAKNTVYLQMNSLKPVDTAVYYCAAYALRGVRYPYRVDFYYWGQGTQVTVSS”, the “polyreactivity (PSR sort gate)” value is given as “high polyreactivity”.

Regarding “QVQLVESGGGLVQAGGSLRLSCAASGRIFYYNAMGWYRQAPGKERELVAAIRSSGGTTYYADSVKGRFTISRDNAKNTVYLQMNSLKPEDTAVYYCNARYWVYYVYEYDSWGQGTQVTVSS”, the “polyreactivity (PSR sort gate)” value is listed as “low polyreactivity”.

“QVQLVESGGGLVQAGGSLRLSCAASGSIFQYYVMGWYRQAPGKERELDAAIRRSGTTYYADSVKGRFTISRDNAKNTVYLQMNSLKPEDTAVDYCNADSIYYYYLIEYEYWGQGSQVTVSS”: the “polyreactivity (PSR sort gate)” value is “low polyreactivity”.

In the case of “QVQLVESGLGLVQAGGSLSLSCAASGIIFSWNSMGWYIEAPGKERELVAAITRGGGGTTYYADYVKGRFTISRDKAKNTVYLQMNSLKPEDTAVYYCAKAYEVRFEVDYCGQGTQVTVSS”, the “polyreactivity (PSR sort gate)” value is given as “low polyreactivity”.

Turning to “QVQLVETGGGLVQAGGSLSLSCAGSVSTFWFYPMGCYRQATGKEREFVATISRSGGSTHNADSVKGRFTISSDNAKNTVYLQMNSLKPEDTAVYYCAKYQRYYSNDYNYWGQGTQVTVSS”, the “polyreactivity (PSR sort gate)” value was “high polyreactivity”.

For the sequence “QVQLVESGGGLVQAGGSLRIICAASGRIFYSNGMGWYRQAPGKERELVAGITRGGSTNYADSVKGRFTISRDNAKNTVYLQMISLKPEDTAVFYCAANQLHYRPSRFVYYGYRLYDYWGHGTQVTVSS”, the “polyreactivity (PSR sort gate)” value is on record as “low polyreactivity”.

Take “QVQLVESGGGLVQAGGSLRLSCAASGRILPFNAMGWYRQAPGKERELVAAIRWRGSSTYYADSVKGRFTISRDIAKNTVYLQMNSLKPEDTAVYYCAAPSSVRGKVISAYYGYWGQGTQVTVSS”: the “polyreactivity (PSR sort gate)” value is “high polyreactivity”.

As for “QVQLVESGGGLVQAGGSLRLSCAASGRTKQRKAMGWYRQAPGKERELVAAISSSGGSTYYADSVKGRFTISRDNAKNTVYLQMNSLKPEDTAVYYCAADGQFDDYYSLPFYYDYWGQGTHVTVSS”, the “polyreactivity (PSR sort gate)” value is listed as “high polyreactivity”.

Take “QVQLVVSGGGLVQAGGSLSLSWAASGRIFSSYAMGWYRQAPGKERELDAAIDRTDSTYYADSVKGRFTISRDNAKNTVYLQMNSLIPEDTAVYYCAVLTYRYQSWGNYYLEYDYWGQGTEVTVSS”: the “polyreactivity (PSR sort gate)” value is “low polyreactivity”.

Take “QVQLVESGGGLVQAGGSLRLSCADSGSTFYRYGMASSRHAPGKERELVAAISWRGGITYYADSVKGRFTISRENAMHTVYLQRNSLKPQDSAVYYCAADGPYTGDGALDYWGQGTQVTVSS”: the “polyreactivity (PSR sort gate)” value was “high polyreactivity”.

As to “QVLLVESGGGLVQAGGSLRLSSAASGSIFVCNAMGWYRQAPGKERELVAAIRGVDSTYYGDSVKGRFTISRDNGKNTFFLQMNSLKPEDTAFYYCATLGPGFPRYYDWGQGTQVTVSS”, the “polyreactivity (PSR sort gate)” value is “high polyreactivity”.

For the sequence “QVQLVESGGGLVQAGGSLRLSCAASGYIFFRYAMGWYRQAPGKERELVAAINSSGDSTYADSVKGRFTISRDNAKNTVYLQMNSLKPEDTAVYYCNKDAPLFHDIIIDMDYWGQGTQVTVSS”, the “polyreactivity (PSR sort gate)” value was “low polyreactivity”.
